Holding throughout (type): biochemical
Series [1] is described as follows: HTP-analysis of supernatants pretreated with base (MUGal hydrolysis). The conditions noted are these: challenge at pH 7.1; activity of the variant/activity of WT GLA (SEQ ID NO: 5); yeast supernatant. Put shortly:
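Fluorescence of released 4-MU (Ex 355 nm, Em 448 nm) after carbonate quench reports MUGal hydrolysis by GLA variants secreted from INVSc1 yeast. Before the acidic (pH 4.3-4.8) 30-180 min reaction at 37° C, supernatants had been pre-incubated at pH 7.0-9.7 for 1-18 h at 37° C.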

Series [2] is described as follows: HTP-analysis of yeast culture supernatants, no challenge (MUGal hydrolysis). The conditions noted are these: activity of the variant/activity of WT GLA (SEQ ID NO: 5), yeast supernatant. Put shortly: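 GLA variants expressed in yeast INVSc1, secreted into SD-Ura broth over 66-84 h at 30° C; clarified supernatants tested without challenge. Supernatant mixed with McIlvaine buffer pH 4.8 and 2 mM MUGal (citrate/KCl, pH 4.6), 37° C for 30-180 min, carbonate-quenched, fluorescence Ex 355/Em 448 nm.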

The nature of series [3]: HTP-analysis of supernatants pretreated with acid (MUGal hydrolysis). The following applies: challenge at pH 4.2; activity of the variant/activity of WT GLA (SEQ ID NO: 5); yeast supernatant. Put shortly: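 Supernatants from INVSc1 yeast secreting GLA variants were challenged at 37° C. for 1-3 h in McIlvaine buffer at pH 3.3-4.3. Residual activity was then measured on 4 mM MUGal substrate stock at pH 4.8 with citrate buffer pH 4.3, over 30-180 min at 37° C. Reactions were quenched with sodium carbonate and read by fluorescence (Ex 355/Em 448 nm).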

Numbering of substitutions follows the chain as printed.

B1: 171 (protein)
chain: LDNGLARTPTMGWLHWERFMCNLDCQEEPDSCISEKLFMEMAELMVSEGWKDAGYEYLCIDDCWMAPQRDSEGRLQADPQRFPHGIRQLANYVHSKGLKLGIYADVGNKTCAGFPGSFGYYDIDAQTFADWGVDLLKFDGCYCDSLENLADGYKHMSLALNRTGRSIVYSCEWPLYMWPFQKPNYTEIRQYCNHWRNFADIDDSWKSIKSILDWTSFNQERIVDVAGPGGWNDPDMLVIGNFGLSWNQQVTQMALWAIMAAPLFMSNDLRHISPQAKALLQDKDVIAINQDPLGKQGYQLRQGDNFEVWERPLSGLAWAVAMINRQEIGGPRSYTIAVASLGKGVACNPACFITQLLPVKRKLGFYEWTSRLRSHINPTGTVLLQLENTMQMGKDLLL
modifications: Synthetic Polypeptide sequence of Variant No. 171 of mature Human GLA
Take B1: the “Relative Activity of GLA Variants After Challenge at pH 7.1” value (from here on “Relative Activity … at pH 7.1”) in series [1] is recorded as “++ (++ = >1.5 to 2.5 relative activity over WT GLA (SEQ ID NO: 5))”. The “Relative Activity of GLA Variants After No Challenge (NC)” value in series [2] is given as “++ (++ = >1.5 to 2.5 relative activity over WT GLA (SEQ ID NO: 5))”. In series [3], the “Relative Activity of GLA Variants After Challenge at pH 4.2” value (from here on “Relative Activity … at pH 4.2”) was “++ (++ = >1.5 to 2.5 relative activity over WT GLA (SEQ ID NO: 5))”.

B2: 180 (protein)
chain: B1 chain with T369D, G393S
modifications: Synthetic Polypeptide sequence of Variant No. 180 of mature Human GLA
For the molecule B2, in series [1], the “Relative Activity … at pH 7.1” value is listed as “+++ (+++ = >2.5 relative activity over WT GLA (SEQ ID NO: 5))”. The “Relative Activity of GLA Variants After No Challenge (NC)” value in series [2] is recorded as “++ (++ = >1.5 to 2.5 relative activity over WT GLA (SEQ ID NO: 5))”. Besides, the “Relative Activity … at pH 4.2” value in series [3] was “++ (++ = >1.5 to 2.5 relative activity over WT GLA (SEQ ID NO: 5))”.

B3: 174 (protein)
chain: B1 chain with S47I, G393S
modifications: Synthetic Polypeptide sequence of Variant No. 174 of mature Human GLA
Consider B3, for which, in series [1], the “Relative Activity … at pH 7.1” value is on record as “+ (+ = 0.5 to 1.5 relative activity over WT GLA (SEQ ID NO: 5))”. For the same molecule, in series [2], the “Relative Activity of GLA Variants After No Challenge (NC)” value is reported as “+ (+ = 0.5 to 1.5 relative activity over WT GLA (SEQ ID NO: 5))”. Further, the “Relative Activity … at pH 4.2” value in series [3] is given as “+ (+ = 0.5 to 1.5 relative activity over WT GLA (SEQ ID NO: 5))”.

B4: 179 (protein)
chain: B1 chain with S95Q, G393S
modifications: Synthetic Polypeptide sequence of Variant No. 179 of mature Human GLA
With B4, in series [1], the “Relative Activity … at pH 7.1” value is “+ (+ = 0.5 to 1.5 relative activity over WT GLA (SEQ ID NO: 5))”. For the same molecule, the “Relative Activity of GLA Variants After No Challenge (NC)” value in series [2] was “+ (+ = 0.5 to 1.5 relative activity over WT GLA (SEQ ID NO: 5))”. Moreover, the “Relative Activity … at pH 4.2” value in series [3] is “+ (+ = 0.5 to 1.5 relative activity over WT GLA (SEQ ID NO: 5))”.

B5: 172 (protein)
chain: B1 chain with G393H
modifications: Synthetic Polypeptide sequence of Variant No. 172 of mature Human GLA
Take B5: the “Relative Activity … at pH 7.1” value in series [1] is on record as “+ (+ = 0.5 to 1.5 relative activity over WT GLA (SEQ ID NO: 5))”. Also, in series [2], the “Relative Activity of GLA Variants After No Challenge (NC)” value is listed as “+ (+ = 0.5 to 1.5 relative activity over WT GLA (SEQ ID NO: 5))”. The “Relative Activity … at pH 4.2” value in series [3] is “+ (+ = 0.5 to 1.5 relative activity over WT GLA (SEQ ID NO: 5))”.

B6: 173 (protein)
chain: B1 chain with G393P
modifications: Synthetic Polypeptide sequence of Variant No. 173 of mature Human GLA
Regarding B6, in series [1], the “Relative Activity … at pH 7.1” value is recorded as “++ (++ = >1.5 to 2.5 relative activity over WT GLA (SEQ ID NO: 5))”. Also, in series [2], the “Relative Activity of GLA Variants After No Challenge (NC)” value is listed as “++ (++ = >1.5 to 2.5 relative activity over WT GLA (SEQ ID NO: 5))”. In series [3], the “Relative Activity … at pH 4.2” value is on record as “++ (++ = >1.5 to 2.5 relative activity over WT GLA (SEQ ID NO: 5))”.

B7: 177 (protein)
chain: B1 chain with S95D, G393S
modifications: Synthetic Polypeptide sequence of Variant No. 177 of mature Human GLA
Turning to B7, the “Relative Activity … at pH 7.1” value in series [1] was “+ (+ = 0.5 to 1.5 relative activity over WT GLA (SEQ ID NO: 5))”. Moreover, the “Relative Activity of GLA Variants After No Challenge (NC)” value in series [2] is “+ (+ = 0.5 to 1.5 relative activity over WT GLA (SEQ ID NO: 5))”. For the same molecule, in series [3], the “Relative Activity … at pH 4.2” value is “++ (++ = >1.5 to 2.5 relative activity over WT GLA (SEQ ID NO: 5))”.

B8: 181 (protein)
chain: B1 chain with T369S, G393S
modifications: Synthetic Polypeptide sequence of Variant No. 181 of mature Human GLA
On to B8, for which, in series [1], the “Relative Activity … at pH 7.1” value is “+ (+ = 0.5 to 1.5 relative activity over WT GLA (SEQ ID NO: 5))”. Also, the “Relative Activity of GLA Variants After No Challenge (NC)” value in series [2] is reported as “+ (+ = 0.5 to 1.5 relative activity over WT GLA (SEQ ID NO: 5))”. For the same molecule, the “Relative Activity … at pH 4.2” value in series [3] is reported as “+ (+ = 0.5 to 1.5 relative activity over WT GLA (SEQ ID NO: 5))”.

B9: 175 (protein)
chain: B1 chain with S47R, G393S
modifications: Synthetic Polypeptide sequence of Variant No. 175 of mature Human GLA
As to B9, in series [1], the “Relative Activity … at pH 7.1” value is listed as “+ (+ = 0.5 to 1.5 relative activity over WT GLA (SEQ ID NO: 5))”. In addition, in series [2], the “Relative Activity of GLA Variants After No Challenge (NC)” value is listed as “+ (+ = 0.5 to 1.5 relative activity over WT GLA (SEQ ID NO: 5))”. In addition, the “Relative Activity … at pH 4.2” value in series [3] is recorded as “++ (++ = >1.5 to 2.5 relative activity over WT GLA (SEQ ID NO: 5))”.

B10: 176 (protein)
chain: B1 chain with S47T, G393S
modifications: Synthetic Polypeptide sequence of Variant No. 176 of mature Human GLA
For the molecule B10, the “Relative Activity … at pH 7.1” value in series [1] is reported as “+ (+ = 0.5 to 1.5 relative activity over WT GLA (SEQ ID NO: 5))”. Further, the “Relative Activity of GLA Variants After No Challenge (NC)” value in series [2] is “+ (+ = 0.5 to 1.5 relative activity over WT GLA (SEQ ID NO: 5))”. Further, the “Relative Activity … at pH 4.2” value in series [3] is on record as “+ (+ = 0.5 to 1.5 relative activity over WT GLA (SEQ ID NO: 5))”.

B11: 178 (protein)
chain: B1 chain with S95E, G393S
modifications: Synthetic Polypeptide sequence of Variant No. 178 of mature Human GLA
As for B11, the “Relative Activity … at pH 7.1” value in series [1] is “++ (++ = >1.5 to 2.5 relative activity over WT GLA (SEQ ID NO: 5))”. In addition, in series [2], the “Relative Activity of GLA Variants After No Challenge (NC)” value is “++ (++ = >1.5 to 2.5 relative activity over WT GLA (SEQ ID NO: 5))”. Moreover, the “Relative Activity … at pH 4.2” value in series [3] is on record as “+++ (+++ = >2.5 relative activity over WT GLA (SEQ ID NO: 5))”.

These data come from patent publication US11278600B2, “Human alpha-galactosidase variants” (Codexis, Inc., priority 2014, dated 2022).
